The source of these data is US7229788B1, “Protease susceptibility II” (The University of Sydney, priority 1998, dated 2007).

Entries after “also recorded” stand apart in the source; their conditions may differ.

One experiment deals with gelatinase A (Homo sapiens, UniProt P08253).
The test system of another experiment is human serum. The following applies: for effect of protease inhibitor on serum degradation of SHEL (amount of full-length SHEL): SHEL incubated with serum at 37° C., SDS-PAGE, 0.5 mM Pefabloc SC, 5 mM PMSF, 25 mM EDTA, Pefabloc PK, 1 unit Hirudin; for effect of peptide on degradation of SHEL by serum (full-length SHEL, SDS-PAGE, densitometry): molar excess of peptide to SHEL (100:1), preincubated 37° C., SHEL and SHELδ26A. As to the method:
Human serum was obtained from fresh intravenous blood, centrifuged at 2000 g to remove red blood cells and then allowed to clot before serum was removed. Aliquots (20 μl) were stored at −20° C. and thawed when needed. 15 μg tropoelastin in 50 mM sodium phosphate buffer, pH 7.8 was incubated with 0.5 μl serum in a 20 μl reaction for between 1 and 18 hr at 37° C. […] All inhibitors were dissolved in water except PMSF which was dissolved in isopropanol. Reactions were analysed by 8% SDS-PAGE. Serum-digested peptides to be used for sequencing were purified by the addition of 1.5 volumes n-propanol, followed by 2.5 volumes n-butanol and stirred overnight. The organic solvents were removed by rotary evaporation and peptides resuspended in 50 mM sodium phosphate buffer, pH 7.8.
Various dilutions of serum from ½– 1/50 in 50 mM sodium phosphate pH7.8 were used and both SHEL and SHELδ26A were used for each experiment.
Experiments were conducted in parallel with S-GAL using identical procedures (see above). Both SHEL and SHELδ26A were used. Each reaction was analysed by 10% SDS-PAGE. Gels were scanned by densitometry and the volume of full-length SHEL calculated as follows. Scanning densitometry of stained gels was performed using the Molecular Dynamics Personal Densitometer. Images were analysed and quantitated using ImageQuant software (Version 3.2, Molecular Dynamics USA).
10 mg/ml SHEL in 50 mM sodium phosphate pH7.8 and 150 mM NaCl was allowed to coacervate at 37° C. until cloudy before adding human plasma kallikrein (6×10^−4U), thrombin (1U), plasmin (1.5×10^−5U), trypsin (2×10^−3U), HLE (1.6×10^−3U) and serum (0.75 μl) for one hour. Control reactions were performed at 16° C. for three hours. Extent of proteolysis was monitored by SDS-PAGE.

Another experiment has as its target T1, kallikrein (Homo sapiens, UniProt P03952).
T1 construct: from tissue; host or cells: human serum
It counts as biochemical.

Another experiment has as its target T2, human thrombin (Homo sapiens, UniProt P00734).
T2 construct: purchased Sigma
The experiment can be described thus: Thrombin digestion of SHEL, SDS-PAGE. The following applies: for effect of peptide on degradation of SHEL by thrombin (full-length SHEL, SDS-PAGE, densitometry): molar excess of peptide to SHEL (100:1), SHEL and SHELδ26A. It counts as biochemical. As to the method:
(§1) A range of enzyme concentrations was originally used to determine the optimal amount for subsequent experiments. Thrombin (0.01–1U), human plasma kallikrein (3×10^−4 to 3×10^−3U), human plasmin (7×10^−5 to 4×10^−7U), bovine trypsin (5×10^−4 to 4×10^−3U), and human leukocyte elastase (1.6×10^−4 to 3.2×10^−3U) were added to 10 μg SHEL or SHELδ26A in 50 mM sodium phosphate buffer pH 7.8 in a total volume of 20 μl. All reactions were performed at 37° C. for one hour. Gelatinase A and B were activated using 0.8 mM APMA at 37° C. for 30 minutes (gelatinase A) or 37° C. for 45 minutes (gelatinase B). Gelatinase A (4×10^−3−4×10^−2) and gelatinase B (2×10^−5−1×10^−4) was added to […] SHEL or SHELd26A in a total volume of […]. Gelatinase B reactions were performed in the presence of 0.75 mM APMA. The degradation profile was analysed by 8, 10 or 12% SDS-PAGE.
(§2) Both SHEL and SHELδ26A were used. Each reaction was analysed by 10% SDS-PAGE.
(§3) Extent of proteolysis was monitored by SDS-PAGE.
Cleavage of GST-SHEL bound to glutathione agarose was performed by washing and resuspending beads in 1× thrombin cleavage buffer (50 mM Tris-HCl pH8.0, 150 mM NaCl, 2.5 mM CaCl2) and adding human thrombin (Sigma) from 0.1 to 1% (w/v) thrombin:fusion protein at 25° C. for one hour (Smith and Johnston 1988). Soluble bacterial lysates used as substrate were incubated similarly with 1× thrombin cleavage buffer, added from a 10× stock. GST (26 kDa) was evident on beads by SDS-PAGE but SHEL could not be identified in the supernatant in numerous experiments. To determine whether thrombin was degrading SHEL, the entire cell lysate was subject to cleavage with increasing concentrations of thrombin. […] GST was clearly present. However, with 0.01U thrombin a band at approximately 64 kDa could be discerned which may represent SHEL although this was not nearly as intense as the GST band.

For the next experiment, the target named is T3, human plasma kallikrein (Homo sapiens, UniProt P03952).
T3 construct: purchased Sigma
T3 sequence (P03952 20-638): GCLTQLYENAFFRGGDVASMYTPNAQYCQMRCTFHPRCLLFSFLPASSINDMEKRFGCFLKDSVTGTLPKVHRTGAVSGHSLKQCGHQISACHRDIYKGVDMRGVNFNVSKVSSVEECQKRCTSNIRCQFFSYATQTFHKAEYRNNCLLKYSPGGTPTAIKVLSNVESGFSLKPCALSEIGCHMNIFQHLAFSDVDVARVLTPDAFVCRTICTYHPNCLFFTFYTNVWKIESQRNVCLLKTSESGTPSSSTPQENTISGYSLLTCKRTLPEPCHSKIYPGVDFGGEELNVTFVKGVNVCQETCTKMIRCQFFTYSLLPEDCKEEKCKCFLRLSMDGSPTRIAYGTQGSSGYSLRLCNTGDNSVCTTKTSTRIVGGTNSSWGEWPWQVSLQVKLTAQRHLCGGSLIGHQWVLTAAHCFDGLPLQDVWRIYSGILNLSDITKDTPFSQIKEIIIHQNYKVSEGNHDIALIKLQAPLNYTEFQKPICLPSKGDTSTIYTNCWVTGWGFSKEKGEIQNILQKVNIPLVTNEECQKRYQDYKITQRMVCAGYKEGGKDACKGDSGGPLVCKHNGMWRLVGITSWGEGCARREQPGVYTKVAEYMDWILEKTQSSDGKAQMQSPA
The experiment can be described thus: Kallikrein digestion of SHEL, SDS-PAGE. It counts as biochemical. The following applies: molar excess of peptide to SHEL (100:1); SHEL and SHELδ26A. As to the method: as §1, §2, §3

The next experiment deals with T4, bovine trypsin (Bos taurus, UniProt P00760).
T4 construct: purchased Boehringer-Mannheim
T4 sequence (P00760 24-246): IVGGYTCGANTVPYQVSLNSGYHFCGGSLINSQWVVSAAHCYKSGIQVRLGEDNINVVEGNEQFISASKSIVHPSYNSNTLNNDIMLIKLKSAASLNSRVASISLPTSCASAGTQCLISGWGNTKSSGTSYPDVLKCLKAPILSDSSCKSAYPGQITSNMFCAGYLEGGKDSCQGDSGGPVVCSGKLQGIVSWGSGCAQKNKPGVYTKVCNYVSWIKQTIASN
The experiment can be described thus: Trypsin digestion of SHEL, SDS-PAGE. It counts as biochemical. The settings on record: molar excess of peptide to SHEL (100:1); SHEL and SHELδ26A. How it is done: as §1, §2, §3

For experiment [1], the target named is T5, human leukocyte elastase (HLE) (Homo sapiens, UniProt P08246).
T5 construct: purchased Sigma
T5 sequence (P08246 30-267): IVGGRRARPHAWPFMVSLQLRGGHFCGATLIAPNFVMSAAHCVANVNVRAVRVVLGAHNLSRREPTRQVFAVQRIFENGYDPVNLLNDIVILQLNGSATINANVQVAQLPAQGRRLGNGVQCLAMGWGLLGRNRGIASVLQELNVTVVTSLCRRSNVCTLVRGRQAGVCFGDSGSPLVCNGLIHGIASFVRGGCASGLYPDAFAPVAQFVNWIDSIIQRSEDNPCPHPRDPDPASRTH
The experiment can be described thus: HLE digestion of SHEL, SDS-PAGE. It counts as biochemical. The following applies: molar excess of peptide to SHEL (100:1); SHEL and SHELδ26A. How it is done:
as §1, §2, §3

The target in another experiment is T6, human plasmin (Homo sapiens, UniProt P00747).
T6 construct: purchased Sigma
T6 sequence (P00747 97-810): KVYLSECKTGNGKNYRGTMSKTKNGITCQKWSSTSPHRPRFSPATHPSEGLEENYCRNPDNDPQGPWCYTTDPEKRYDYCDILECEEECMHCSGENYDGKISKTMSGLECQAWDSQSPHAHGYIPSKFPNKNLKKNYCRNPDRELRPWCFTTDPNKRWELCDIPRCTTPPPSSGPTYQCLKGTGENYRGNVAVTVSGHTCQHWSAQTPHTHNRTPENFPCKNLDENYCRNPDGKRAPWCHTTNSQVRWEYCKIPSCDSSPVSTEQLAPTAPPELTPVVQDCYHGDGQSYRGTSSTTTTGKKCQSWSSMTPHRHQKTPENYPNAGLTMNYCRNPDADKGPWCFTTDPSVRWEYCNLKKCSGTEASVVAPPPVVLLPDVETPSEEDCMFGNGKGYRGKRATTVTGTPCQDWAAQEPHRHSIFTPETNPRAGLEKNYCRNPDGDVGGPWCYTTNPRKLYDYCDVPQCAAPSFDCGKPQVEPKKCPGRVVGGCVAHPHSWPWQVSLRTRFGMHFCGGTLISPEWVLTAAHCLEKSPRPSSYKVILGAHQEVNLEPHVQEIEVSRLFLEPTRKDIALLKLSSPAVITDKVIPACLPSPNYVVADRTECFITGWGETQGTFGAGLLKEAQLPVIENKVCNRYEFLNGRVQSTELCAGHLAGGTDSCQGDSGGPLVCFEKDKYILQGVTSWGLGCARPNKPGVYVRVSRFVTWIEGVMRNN
Briefly: Plasmin digestion of SHEL, SDS-PAGE. It counts as biochemical. The settings on record: molar excess of peptide to SHEL (100:1); SHEL and SHELδ26A. As to the method: as §1, §2, §3

Sequence of gelatinase A (P08253 110-660): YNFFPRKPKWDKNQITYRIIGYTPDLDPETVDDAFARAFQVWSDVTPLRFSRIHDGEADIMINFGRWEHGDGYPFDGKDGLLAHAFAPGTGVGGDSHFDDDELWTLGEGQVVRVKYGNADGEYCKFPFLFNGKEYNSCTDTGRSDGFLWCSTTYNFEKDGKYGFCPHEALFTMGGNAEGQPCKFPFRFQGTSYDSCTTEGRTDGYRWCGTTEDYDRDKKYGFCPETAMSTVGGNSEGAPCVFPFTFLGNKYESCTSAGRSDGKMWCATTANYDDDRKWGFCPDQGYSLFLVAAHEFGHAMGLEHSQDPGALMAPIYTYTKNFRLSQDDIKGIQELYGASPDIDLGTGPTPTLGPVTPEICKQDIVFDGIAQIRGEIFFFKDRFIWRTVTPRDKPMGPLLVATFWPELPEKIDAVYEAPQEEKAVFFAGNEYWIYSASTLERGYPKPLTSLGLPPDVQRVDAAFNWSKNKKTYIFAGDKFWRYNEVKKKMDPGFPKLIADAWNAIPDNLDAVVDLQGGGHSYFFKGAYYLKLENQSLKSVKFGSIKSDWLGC
T1 sequence (P03952 20-638): as the sequence (P03952 20-638) above

Turning to `O=C(O)CN(CCN(CC(=O)O)CC(=O)O)CC(=O)O` [EDTA], on gelatinase A, the “effect on 64 kDa zone in gelatin zymogram digested with serum” value was 64 kDa zone was not observed. For the same molecule, the “effect of protease inhibitor on serum degradation of SHEL (amount of full-length SHEL)” value (“effect of protease inhibitor” below) with human serum was “appeared to promote digestion”.
`O=S(=O)(F)Cc1ccccc1` [PMSF]: the “effect of inhibitor on second cleared zone in SHEL zymogram digested with serum” value at kallikrein is “second cleared zone was not seen”. In addition, the “effect of protease inhibitor” value with human serum was “protected tropoelastin from cleavage”.
With `Cl.NCCc1ccc(S(=O)(=O)F)cc1` [Pefabloc SC], the “effect of protease inhibitor” value with human serum is reported as “protected tropoelastin from cleavage”.
As for Hirudin [reference compound], at human thrombin (not shown), the “inhibition of thrombin degradation of SHEL by inhibitor” value is “degradation was inhibited”. Further, in the experiment on human serum, the “effect of protease inhibitor” value is given as “did not appear to significantly inhibit degradation”.
Turning to “N-AAKAQLRAAAGLGA-C (KAQLRAAAGLGAGI; listed as Homo sapiens) [SPS-peptide]”, the “effect of peptide on degradation of SHEL by kallikrein (full-length SHEL, SDS-PAGE, densitometry)” value in the experiment with human plasma kallikrein is given as “more full-length SHEL was evident compared with controls”. Besides, the “effect of peptide on degradation of SHEL by thrombin (full-length SHEL, SDS-PAGE, densitometry)” value with human thrombin was “more full-length SHEL using thrombin and HLE but to a lesser extent”. Besides, in the experiment with bovine trypsin, the “effect of peptide on degradation of SHEL by trypsin (full-length SHEL, SDS-PAGE, densitometry)” value was “more full-length SHEL was evident compared with controls”. In addition, the “effect of peptide on degradation of SHEL by HLE (full-length SHEL, SDS-PAGE, densitometry)” value in experiment [1] was “more full-length SHEL using thrombin and HLE but to a lesser extent”. The “effect of peptide on degradation of SHEL by plasmin (full-length SHEL, SDS-PAGE, densitometry)” value in the experiment with human plasmin is on record as “more full-length SHEL was evident compared with controls”. Also, in the experiment on human serum, the “effect of peptide on degradation of SHEL by serum (full-length SHEL, SDS-PAGE, densitometry)” value is given as “more full-length SHEL was evident compared with controls”.
Consider “N-VVGSPSAQDEASPLS-C (listed as Homo sapiens) [S-GAL, reference compound]”, for which, in the experiment with human plasma kallikrein, the “effect of peptide on degradation of SHEL by kallikrein (full-length SHEL, SDS-PAGE, densitometry)” value was “did not show any significant or consistent inhibition”. The “effect of peptide on degradation of SHEL by thrombin (full-length SHEL, SDS-PAGE, densitometry)” value in the experiment with human thrombin was “some inhibition could be seen”. Further, in the experiment with bovine trypsin, the “effect of peptide on degradation of SHEL by trypsin (full-length SHEL, SDS-PAGE, densitometry)” value is reported as “did not show any significant or consistent inhibition”. Also, the “effect of peptide on degradation of SHEL by HLE (full-length SHEL, SDS-PAGE, densitometry)” value in experiment [1] is “consistently inhibited; also recorded: significant and reproducible inhibition was seen”. In the experiment with human plasmin, the “effect of peptide on degradation of SHEL by plasmin (full-length SHEL, SDS-PAGE, densitometry)” value was “did not show any significant or consistent inhibition”. The “effect of peptide on degradation of SHEL by serum (full-length SHEL, SDS-PAGE, densitometry)” value with human serum was “did not show any significant or consistent inhibition”.
